These are literature values, as cited in publication PMC12990809.

Holding throughout (experiment): pulldown
What all share (conditions): 20 nM protein, 1.5 uM RNA pool; 20 mM HEPES pH 7.8, 70 mM KCl, 10 mM NaCl, 10% glycerol, 2 mM DTT, 0.1 ug/uL BSA; 30 min, 4 C (protocol of this paper; not …); cited from earlier work

The target of data set [1] is T1, LmjF.35.4130 (Leishmania major) (UniProt E9AFP0).
T1 sequence: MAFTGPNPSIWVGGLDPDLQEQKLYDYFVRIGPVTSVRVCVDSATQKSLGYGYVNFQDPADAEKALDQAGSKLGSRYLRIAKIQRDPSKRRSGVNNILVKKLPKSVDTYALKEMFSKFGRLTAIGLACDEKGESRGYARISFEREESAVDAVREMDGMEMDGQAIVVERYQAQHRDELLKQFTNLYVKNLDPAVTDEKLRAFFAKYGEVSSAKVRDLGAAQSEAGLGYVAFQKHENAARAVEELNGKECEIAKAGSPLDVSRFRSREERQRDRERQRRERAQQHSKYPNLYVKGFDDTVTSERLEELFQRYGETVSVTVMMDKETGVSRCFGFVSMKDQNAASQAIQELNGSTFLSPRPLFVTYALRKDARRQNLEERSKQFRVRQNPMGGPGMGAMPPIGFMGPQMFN

In data set [2] the target is T2, estExt_fgeneshHS_pg.C_730016 (Naegleria gruberi) (UniProt D2W041).
T2 sequence: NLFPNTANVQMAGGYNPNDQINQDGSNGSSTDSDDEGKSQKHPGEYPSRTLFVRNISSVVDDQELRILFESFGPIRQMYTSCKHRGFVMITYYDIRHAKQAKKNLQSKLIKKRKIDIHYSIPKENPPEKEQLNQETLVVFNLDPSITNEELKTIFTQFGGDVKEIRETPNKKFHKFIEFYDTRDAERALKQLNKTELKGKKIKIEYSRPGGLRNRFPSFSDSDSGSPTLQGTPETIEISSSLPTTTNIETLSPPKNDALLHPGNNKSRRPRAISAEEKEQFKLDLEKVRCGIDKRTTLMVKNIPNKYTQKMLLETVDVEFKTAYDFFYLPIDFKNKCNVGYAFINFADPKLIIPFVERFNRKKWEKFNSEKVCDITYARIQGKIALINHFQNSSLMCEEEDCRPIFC

Data set [3] deals with T3, TVAG_267990 (Trichomonas vaginalis) (UniProt A2DLE8).
T3 sequence: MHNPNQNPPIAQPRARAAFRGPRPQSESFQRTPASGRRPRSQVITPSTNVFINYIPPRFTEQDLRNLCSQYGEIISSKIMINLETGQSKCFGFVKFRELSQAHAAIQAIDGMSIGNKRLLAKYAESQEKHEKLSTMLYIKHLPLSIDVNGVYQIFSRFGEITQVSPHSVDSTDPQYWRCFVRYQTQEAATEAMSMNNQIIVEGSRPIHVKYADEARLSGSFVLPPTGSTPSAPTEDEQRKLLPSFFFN

The target of data set [4] is T4, TVAG_002940 (Trichomonas vaginalis) (UniProt A2EZR7).
T4 sequence: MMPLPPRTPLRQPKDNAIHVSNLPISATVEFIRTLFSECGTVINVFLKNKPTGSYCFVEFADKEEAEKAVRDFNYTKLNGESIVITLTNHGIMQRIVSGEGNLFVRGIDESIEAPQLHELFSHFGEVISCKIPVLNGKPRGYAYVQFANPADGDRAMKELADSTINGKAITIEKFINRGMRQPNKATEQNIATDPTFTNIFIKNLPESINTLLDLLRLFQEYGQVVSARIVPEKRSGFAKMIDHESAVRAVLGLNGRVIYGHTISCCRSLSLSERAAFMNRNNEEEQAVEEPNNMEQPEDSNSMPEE

For data set [5], the target named is T5, Tb09.211.0930 (Trypanosoma brucei) (UniProt Q38E63).
T5 sequence: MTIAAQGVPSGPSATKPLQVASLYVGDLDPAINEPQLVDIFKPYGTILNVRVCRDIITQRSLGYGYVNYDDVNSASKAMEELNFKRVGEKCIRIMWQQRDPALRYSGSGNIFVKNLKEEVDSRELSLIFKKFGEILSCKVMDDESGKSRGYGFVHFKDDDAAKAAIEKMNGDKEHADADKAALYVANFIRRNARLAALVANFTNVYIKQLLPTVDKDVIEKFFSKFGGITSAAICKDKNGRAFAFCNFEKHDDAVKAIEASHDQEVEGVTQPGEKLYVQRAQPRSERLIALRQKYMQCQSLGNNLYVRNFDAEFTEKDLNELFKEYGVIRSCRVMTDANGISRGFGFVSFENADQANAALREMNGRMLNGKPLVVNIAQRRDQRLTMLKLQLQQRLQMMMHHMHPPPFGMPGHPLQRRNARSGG

The target in data set [6] is e_gw1.09.00.326.1 (Ostreococcus tauri) (UniProt A0A090N3Z5).
Chain of e_gw1.09.00.326.1 (Ostreococcus tauri) (A0A090N3Z5 entry or part of it): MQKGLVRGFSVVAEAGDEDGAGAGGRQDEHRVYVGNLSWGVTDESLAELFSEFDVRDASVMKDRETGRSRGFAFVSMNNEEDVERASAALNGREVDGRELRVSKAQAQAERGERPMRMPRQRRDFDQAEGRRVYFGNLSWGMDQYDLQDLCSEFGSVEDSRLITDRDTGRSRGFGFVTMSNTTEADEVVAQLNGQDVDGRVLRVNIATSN
Data set [7] concerns the target T6, NEMVEDRAFT_v1g104011 (Nematostella vectensis) (UniProt A7S488).
T6 sequence: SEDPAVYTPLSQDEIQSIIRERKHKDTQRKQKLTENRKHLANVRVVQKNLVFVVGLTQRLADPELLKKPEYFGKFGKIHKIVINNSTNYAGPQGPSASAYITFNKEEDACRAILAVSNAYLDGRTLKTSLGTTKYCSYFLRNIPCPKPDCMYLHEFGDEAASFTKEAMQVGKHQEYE

For the next data set, the target named is SRSF10 (Homo sapiens) (UniProt O75494).
Chain of SRSF10 (Homo sapiens) (O75494 1-92): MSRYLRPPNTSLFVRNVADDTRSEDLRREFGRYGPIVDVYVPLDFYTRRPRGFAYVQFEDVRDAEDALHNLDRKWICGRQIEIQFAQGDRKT
Data set [8] deals with T7, Tb11.01.7680 (Trypanosoma brucei) (UniProt Q381I4).
T7 sequence: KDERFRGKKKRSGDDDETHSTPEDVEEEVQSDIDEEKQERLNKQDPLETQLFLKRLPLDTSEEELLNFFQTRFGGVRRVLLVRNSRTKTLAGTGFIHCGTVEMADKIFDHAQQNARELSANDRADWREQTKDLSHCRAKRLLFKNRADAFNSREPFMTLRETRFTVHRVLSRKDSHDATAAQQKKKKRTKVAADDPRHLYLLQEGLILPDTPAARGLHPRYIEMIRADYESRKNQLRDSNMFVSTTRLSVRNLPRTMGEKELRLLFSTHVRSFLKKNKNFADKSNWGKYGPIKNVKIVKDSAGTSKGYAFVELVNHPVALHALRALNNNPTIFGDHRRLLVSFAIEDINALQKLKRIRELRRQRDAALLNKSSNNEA

For data set [9], the target named is eIF-2alpha (Drosophila melanogaster) (UniProt P41374).
Chain of eIF-2alpha (Drosophila melanogaster) (P41374 whole entry): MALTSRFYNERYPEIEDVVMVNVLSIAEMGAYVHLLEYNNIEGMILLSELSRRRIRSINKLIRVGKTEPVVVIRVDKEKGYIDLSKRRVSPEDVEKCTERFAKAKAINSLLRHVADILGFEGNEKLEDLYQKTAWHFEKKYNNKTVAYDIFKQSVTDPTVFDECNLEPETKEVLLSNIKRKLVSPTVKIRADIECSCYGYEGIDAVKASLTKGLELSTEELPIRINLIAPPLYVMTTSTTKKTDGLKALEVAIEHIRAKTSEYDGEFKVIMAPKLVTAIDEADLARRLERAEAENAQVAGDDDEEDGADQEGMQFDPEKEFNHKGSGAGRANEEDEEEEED
For data set [10], the target named is T8, LmjF.35.2550 (Leishmania major) (UniProt E9AF78).
T8 sequence: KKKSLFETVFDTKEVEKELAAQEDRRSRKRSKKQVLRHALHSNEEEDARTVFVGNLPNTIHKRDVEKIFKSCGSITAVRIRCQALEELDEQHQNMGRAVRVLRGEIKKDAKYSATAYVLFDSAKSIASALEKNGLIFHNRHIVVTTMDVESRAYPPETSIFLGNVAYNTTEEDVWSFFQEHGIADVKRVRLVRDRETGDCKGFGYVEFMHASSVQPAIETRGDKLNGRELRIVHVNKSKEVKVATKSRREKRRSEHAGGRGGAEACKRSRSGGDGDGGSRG

The target of data set [11] is T9, Rb97D (Drosophila melanogaster) (UniProt Q02926).
T9 sequence: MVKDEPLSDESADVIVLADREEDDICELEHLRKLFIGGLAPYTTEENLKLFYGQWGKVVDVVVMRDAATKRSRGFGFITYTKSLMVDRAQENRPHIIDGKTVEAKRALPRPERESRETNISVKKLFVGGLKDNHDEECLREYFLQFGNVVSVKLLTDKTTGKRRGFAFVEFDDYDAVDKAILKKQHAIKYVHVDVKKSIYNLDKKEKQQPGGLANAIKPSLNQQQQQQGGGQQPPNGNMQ

The target in data set [12] is T10, TVAG_129710 (Trichomonas vaginalis) (UniProt A2DI67).
T10 sequence: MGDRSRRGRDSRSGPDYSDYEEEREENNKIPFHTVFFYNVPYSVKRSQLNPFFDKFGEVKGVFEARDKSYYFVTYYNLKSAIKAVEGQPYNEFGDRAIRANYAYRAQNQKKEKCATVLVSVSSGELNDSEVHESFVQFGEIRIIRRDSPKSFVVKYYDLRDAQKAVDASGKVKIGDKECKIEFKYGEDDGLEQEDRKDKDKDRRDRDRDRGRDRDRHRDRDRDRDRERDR

Data set [13] has as its target aret (Drosophila melanogaster) (UniProt C8VV87).
Data set [14] addresses T11, Tb11.03.0170 (Trypanosoma brucei) (UniProt Q387F5).
T11 sequence: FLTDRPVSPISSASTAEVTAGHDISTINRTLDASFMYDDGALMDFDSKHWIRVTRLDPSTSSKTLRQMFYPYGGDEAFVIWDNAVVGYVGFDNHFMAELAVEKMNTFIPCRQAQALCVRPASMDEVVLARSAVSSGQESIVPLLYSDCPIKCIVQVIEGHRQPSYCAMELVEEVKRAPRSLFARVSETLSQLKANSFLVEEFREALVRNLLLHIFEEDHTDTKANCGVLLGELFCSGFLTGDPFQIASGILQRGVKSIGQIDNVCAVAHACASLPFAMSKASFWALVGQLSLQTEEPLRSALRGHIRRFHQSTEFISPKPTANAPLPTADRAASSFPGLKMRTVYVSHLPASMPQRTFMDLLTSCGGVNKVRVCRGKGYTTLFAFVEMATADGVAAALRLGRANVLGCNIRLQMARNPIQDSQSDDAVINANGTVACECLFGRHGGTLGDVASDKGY

The target in a further data set is PTBP1 (Homo sapiens) (UniProt P26599).
Chain of PTBP1 (Homo sapiens) (P26599 other isoform, or with tags, fused parts or gaps): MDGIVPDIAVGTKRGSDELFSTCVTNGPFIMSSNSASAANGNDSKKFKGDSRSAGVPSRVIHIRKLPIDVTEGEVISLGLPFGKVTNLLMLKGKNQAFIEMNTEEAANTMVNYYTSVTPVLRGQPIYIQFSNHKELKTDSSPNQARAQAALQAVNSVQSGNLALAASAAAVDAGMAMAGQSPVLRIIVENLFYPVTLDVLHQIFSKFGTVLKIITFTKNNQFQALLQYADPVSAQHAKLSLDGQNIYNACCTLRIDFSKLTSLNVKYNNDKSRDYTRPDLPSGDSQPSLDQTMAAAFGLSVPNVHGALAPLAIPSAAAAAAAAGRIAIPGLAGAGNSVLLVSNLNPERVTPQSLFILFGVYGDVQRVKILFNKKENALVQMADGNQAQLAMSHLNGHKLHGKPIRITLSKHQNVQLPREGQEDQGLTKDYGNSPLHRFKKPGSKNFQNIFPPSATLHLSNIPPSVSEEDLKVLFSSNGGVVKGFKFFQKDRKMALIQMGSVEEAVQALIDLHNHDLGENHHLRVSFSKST
Data set [15] deals with T12, tiar-1 (Caenorhabditis elegans) (UniProt Q95QV8).
T12 sequence: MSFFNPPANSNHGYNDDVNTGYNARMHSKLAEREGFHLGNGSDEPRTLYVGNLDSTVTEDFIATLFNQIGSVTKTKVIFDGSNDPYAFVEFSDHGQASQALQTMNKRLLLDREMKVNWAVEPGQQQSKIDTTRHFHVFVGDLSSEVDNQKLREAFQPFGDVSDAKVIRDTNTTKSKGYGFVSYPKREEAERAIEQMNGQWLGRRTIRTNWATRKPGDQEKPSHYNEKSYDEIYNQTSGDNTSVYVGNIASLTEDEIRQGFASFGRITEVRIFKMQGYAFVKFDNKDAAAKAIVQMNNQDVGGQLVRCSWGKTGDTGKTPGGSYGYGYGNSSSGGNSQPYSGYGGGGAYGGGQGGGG

Data set [16] deals with T13, e_gw1.03.00.367.1 (Ostreococcus tauri) (UniProt Q01DB3).
T13 sequence: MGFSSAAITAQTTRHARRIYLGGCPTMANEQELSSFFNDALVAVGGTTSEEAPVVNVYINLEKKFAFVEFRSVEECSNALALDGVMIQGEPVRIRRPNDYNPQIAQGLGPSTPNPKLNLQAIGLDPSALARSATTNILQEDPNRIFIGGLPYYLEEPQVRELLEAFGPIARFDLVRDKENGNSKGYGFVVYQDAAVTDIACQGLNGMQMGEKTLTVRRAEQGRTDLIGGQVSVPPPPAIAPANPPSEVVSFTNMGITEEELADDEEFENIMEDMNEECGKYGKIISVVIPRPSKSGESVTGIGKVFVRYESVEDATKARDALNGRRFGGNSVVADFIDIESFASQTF

Chain of aret (Drosophila melanogaster) (C8VV87 entry or part of it): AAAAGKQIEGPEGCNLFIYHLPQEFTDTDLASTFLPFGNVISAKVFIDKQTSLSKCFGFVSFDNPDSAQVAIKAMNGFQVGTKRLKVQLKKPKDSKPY

Consider AAAACAAA [RNAcompete motif RNCMPT00255], for which, in data set [1], the binding signal (z-score (mean of top ten 7-mers)) was 8.22.

For the substance AAUUUUG [RNAcompete motif RNCMPT00261], the binding signal (z-score (mean of top ten 7-mers)) in data set [2] is 19.4.

Turning to ACCAUG [RNAcompete motif RNCMPT00259], the binding signal (z-score (mean of top ten 7-mers)) in data set [3] was 19.9.

On to AGAAAA [RNAcompete motif RNCMPT00257], for which the binding signal (z-score (mean of top ten 7-mers)) in [4] is 12.5.

AGAAANA [RNAcompete motif RNCMPT00253]: the binding signal (z-score (mean of top ten 7-mers)) in data set [5] is 9.59.

In the case of AGAACA [RNAcompete motif RNCMPT00263], the binding signal (z-score (mean of top ten 7-mers)) in data set [6] is 8.19.

As for AGACACA [RNAcompete motif RNCMPT00278], the binding signal (z-score (mean of top ten 7-mers)) in data set [7] is 12.7.

AGAGAAA [RNAcompete motif RNCMPT00090]: the binding signal (z-score (mean of top ten 7-mers)) in the data set with SRSF10 (Homo sapiens) was 14.3.

Turning to AGUAGAU [RNAcompete motif RNCMPT00252], the binding signal (z-score (mean of top ten 7-mers)) in data set [8] is 7.34.

As to CUCUGU [RNAcompete motif RNCMPT00273], the binding signal (z-score (mean of top ten 7-mers)) in [9] is 6.48.

Regarding GAACG [RNAcompete motif RNCMPT00254], the binding signal (z-score (mean of top ten 7-mers)) in data set [10] is 15.2.

As for UAGGUA [RNAcompete motif RNCMPT00272], the binding signal (z-score (mean of top ten 7-mers)) in data set [11] was 8.77.

For the substance UGUUUG [RNAcompete motif RNCMPT00258], the binding signal (z-score (mean of top ten 7-mers)) in [12] is 7.64.

As for “UNUUUGUGU [RNAcompete motif RNCMPT00270]”, in [13], the binding signal (z-score (mean of top ten 7-mers)) is 14.8.

Take UUCACAC [RNAcompete motif RNCMPT00251]: in data set [14], the binding signal (z-score (mean of top ten 7-mers)) was 9.19.

For the substance UUUUCU [RNAcompete motif RNCMPT00268], in the data set with PTBP1 (Homo sapiens), the binding signal (z-score (mean of top ten 7-mers)) is 6.14.

In the case of UUUUUU [RNAcompete motif RNCMPT00256], the binding signal (z-score (mean of top ten 7-mers)) in data set [15] was 11.2.

On to UUUUUU [RNAcompete motif RNCMPT00262], for which the binding signal (z-score (mean of top ten 7-mers)) in data set [16] is 11.3.
